A value given as a limit tells only on which side of the number the result lay.

One substance from patent JP2013230152A can be followed below.

The target in experiment [1] is H77 E1E2突然変異型L413A (Hepatitis C virus genotype 1a, strain H77) (UniProt P27958). As to the kind of experiment: GNA capture EIA, mutant E1E2 from HEK293T cells.
Experiment [2] concerns the target H77 E1E2突然変異型N415A (Hepatitis C virus genotype 1a, strain H77) (UniProt P27958). Nature of the experiment: GNA capture EIA, mutant E1E2 from HEK293T cells.
Experiment [3] deals with H77 E1E2突然変異型W420A (Hepatitis C virus genotype 1a, strain H77) (UniProt P27958). As to the kind of experiment: GNA capture EIA, mutant E1E2 from HEK293T cells.
For experiment [4], the target named is H77 E1E2突然変異型Q412A (Hepatitis C virus genotype 1a, strain H77) (UniProt P27958). As to the kind of experiment: GNA capture EIA, mutant E1E2 from HEK293T cells.
The target of experiment [5] is H77 E1E2突然変異型G418A (Hepatitis C virus genotype 1a, strain H77) (UniProt P27958). As to the kind of experiment: GNA capture EIA, mutant E1E2 from HEK293T cells.
Experiment [6] has as its target 遺伝子型5の単離物のE1E2(MAb AP33反応性). Nature of the experiment: cell-based or functional assay.
The next experiment has as its target 遺伝子型3aの単離物のE1E2. As to the kind of experiment: cell-based or functional assay.
Experiment [7] addresses 412〜423分枝ペプチド (Hepatitis C virus). Nature of the experiment: antibody titration on the 412-423 branched peptide (Figure 10).

Consider モノクローナル抗体AP33 (antibody), for which the decrease of binding compared with wild type in experiment [1], in experiment [2], in experiment [3] and in experiment [5] was over 75% throughout. This substance also displayed an increase of binding compared with wild type H77 in experiment [4] of 50%. Besides, the IC 50(HCV pp 中和) was 0.6 µg/mL in experiment [6] and 22 µg/mL in the experiment with 遺伝子型3aの単離物のE1E2. Moreover, the concentration for 50% binding, how much lower than that of MAb 3/11 in experiment [7] is over 10.
